Assay results: paper doi:10.1101/2025.05.02.651972

Biological target: recombinant extracellular domain of EGFR (human) (UniProt P00533)
Experiment: MST

Kd: 0.5 µM
Substance: recombinant epiregulin (from UniProt O14944) (ligand)
